Measurements published in article PMC3689846 (Science (New York, N.Y.), 2013).

Target: eOD-GT6 (germline-targeting engineered outer domain of gp120) (HIV-1 isolate HXB2, engineered outer …)
Assay: SPR

B1: NIH45-46 (mature) (antibody, V domains shown)
VH: QVRLSQSGGQMKKPGESMRLSCRASGYEFLNCPINWIRLAPGRRPEWMGWLKPRGGAVNYARKFQGRVTMTRDVYSDTAFLELRSLTSDDTAVYFCTRGKYCTARDYYNWDFEHWGRGAPVTVSS
VL: EIVLTQSPATLSLSPGETAIISCRTSQSGSLAWYQQRPGQAPRLVIYSGSTRAAGIPDRFSGSRWGADYNLSISNLESGDFGVYYCQQYEFFGQGTKVQVD
Work on B1 yielded a Kd of 4 nM.
